Assay results as given in patent US20140087995A1 (published 2014).
Numbered stars: 1 amine (or outer) side, 2 acyl side, 3 side chain; on linkers, the order of the positions; unused ones are H or OH. Bridge positions count the residues as written; N and C are the ends. * marks the point of attachment. C20 diacid = O=C(O)CCCCCCCCCCCCCCCCCCC(=O)*; γGlu = O=C(O)[C@H](CCC(=O)[*:2])N[*:1]; AEEA = NCCOCCOCC(=O)O

Columns and labels:
rat calcitonin receptor [1] = molecular target: T1, rat calcitonin receptor (rat, UniProt P32214 25-516); assay: ratio IC50 rat calcitonin receptor / IC50 rat amylin receptor (Assays VIII and VI)
T1 construct: whole, on cells; Used as membranes prepared from the transfected cells; also called rCTR; rat calcitonin (a) receptor
T1 sequence (looked up): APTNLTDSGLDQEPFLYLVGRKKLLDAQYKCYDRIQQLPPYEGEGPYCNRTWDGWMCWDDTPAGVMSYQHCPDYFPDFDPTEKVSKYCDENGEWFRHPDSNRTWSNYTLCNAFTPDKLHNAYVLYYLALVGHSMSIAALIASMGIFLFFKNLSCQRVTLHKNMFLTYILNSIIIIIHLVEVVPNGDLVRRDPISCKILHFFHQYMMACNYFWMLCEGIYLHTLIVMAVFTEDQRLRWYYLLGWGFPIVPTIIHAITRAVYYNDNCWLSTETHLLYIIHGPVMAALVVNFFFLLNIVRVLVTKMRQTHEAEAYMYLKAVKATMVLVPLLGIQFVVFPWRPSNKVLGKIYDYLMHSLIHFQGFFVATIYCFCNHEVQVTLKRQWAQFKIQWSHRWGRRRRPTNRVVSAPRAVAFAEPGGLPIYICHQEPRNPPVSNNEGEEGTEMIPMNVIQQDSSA

[2] = molecular target: T2, human calcitonin receptor (human, UniProt P30988 25-474); assay: ratio IC50 human calcitonin receptor / IC50 human amylin receptor (Assays VII and V)
T2 construct: whole, on cells; Used as membranes prepared from the transfected cells (Assay VII); also called hCTR; hCT
T2 sequence (looked up): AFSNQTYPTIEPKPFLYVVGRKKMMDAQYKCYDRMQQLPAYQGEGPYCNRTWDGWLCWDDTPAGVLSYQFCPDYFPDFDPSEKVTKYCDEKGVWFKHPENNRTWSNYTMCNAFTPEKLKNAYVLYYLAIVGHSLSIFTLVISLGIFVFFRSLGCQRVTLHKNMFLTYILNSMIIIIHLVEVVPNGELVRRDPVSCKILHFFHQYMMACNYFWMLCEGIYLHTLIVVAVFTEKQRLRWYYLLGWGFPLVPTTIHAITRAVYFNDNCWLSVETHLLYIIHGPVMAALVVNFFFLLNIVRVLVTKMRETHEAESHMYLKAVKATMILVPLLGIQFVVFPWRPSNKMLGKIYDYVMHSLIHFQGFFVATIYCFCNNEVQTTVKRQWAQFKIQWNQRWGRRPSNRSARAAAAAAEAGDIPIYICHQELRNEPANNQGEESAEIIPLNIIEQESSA
Method: The resulting pellet was resuspended, homogenized and centrifuged (20.000 rpm, 15 min) in a buffer containing 20 mM Na-HEPES and 0.1 mM EDTA (pH 7.4, buffer 2). The resulting pellet was resuspended in buffer 2 and protein concentration was measured (BCA protein Assay, Pierce). The homogenate was kept cold during the whole procedure. The membranes were kept at −80° C. until use. The assay was performed in a 384 well Optiplate (PerkinElmer) in a total volume of 40 ul. Membranes were mixed with SPA beads. Final concentration of membranes 35 ng/μL final and SPA beads was 0.05 mg/well. Test-compounds were dissolved in DMSO and further diluted in assay buffer (50 mM Hepes, pH 7.4, 1 mM CaCl2, 5 mM MgCl₂, 0.1% OA and 0.02% Tween20). […] The final mixture was incubated with shaking at 400 rpm for 120 min at 25° C. prior to centrifugation (1500 rpm, 10 min). Samples were analyzed on TopCounter™ (Packard). The IC₅₀ was calculated using (one site binding competition analysis) GraphPad Prism5 as a measure of receptor affinity.
Membranes were prepared in the following way; the cells were rinsed with PBS and incubated with Versene for approximately 5 min before harvesting. The cells were flushed with PBS and the cell-suspension was centrifuged for 5 min at 1000 rpm. Cells were homogenized (Ultrathurrax) in a buffer containing 20 mM Na-HEPES and 10 mM EDTA (pH 7.4) and centrifuged at 20.000 rpm for 15 min. The resulting pellet was resuspended, homogenized and centrifuged (20.000 rpm, 15 min) in a buffer containing 20 mM Na-HEPES and 0.1 mM EDTA (pH 7.4, buffer 2). The resulting pellet was resuspended in buffer 2 and protein concentration was measured (BCA protein Assay, Pierce). The homogenate was kept cold during the whole procedure. The membranes were kept at −80° C. until use. Assay was performed in a 384 well Optiplate (PerkinElmer) in a total volume of 40 ul. Membranes were mixed with SPA beads.

rat calcitonin receptor [3] = molecular target: T1, rat calcitonin receptor; assay: SPA competition with 125I-calcitonin, membranes of BHK cells with rat calcitonin receptor (Assay VIII)
[4] = molecular target: T3, rat amylin receptor (rat calcitonin receptor + rat RAMP 3) (rat, UniProt P32214 25-516; Q9JJ73 23-147); assay: SPA competition with 125I-rat amylin, membranes of BHK cells with rat calcitonin receptor + rat RAMP3 (Assay VI)
T3 construct: whole, on cells; Used as membranes prepared from the transfected cells; also called rAmylin-R; rat amylin 3(a) receptor
T3 sequence (looked up) 1: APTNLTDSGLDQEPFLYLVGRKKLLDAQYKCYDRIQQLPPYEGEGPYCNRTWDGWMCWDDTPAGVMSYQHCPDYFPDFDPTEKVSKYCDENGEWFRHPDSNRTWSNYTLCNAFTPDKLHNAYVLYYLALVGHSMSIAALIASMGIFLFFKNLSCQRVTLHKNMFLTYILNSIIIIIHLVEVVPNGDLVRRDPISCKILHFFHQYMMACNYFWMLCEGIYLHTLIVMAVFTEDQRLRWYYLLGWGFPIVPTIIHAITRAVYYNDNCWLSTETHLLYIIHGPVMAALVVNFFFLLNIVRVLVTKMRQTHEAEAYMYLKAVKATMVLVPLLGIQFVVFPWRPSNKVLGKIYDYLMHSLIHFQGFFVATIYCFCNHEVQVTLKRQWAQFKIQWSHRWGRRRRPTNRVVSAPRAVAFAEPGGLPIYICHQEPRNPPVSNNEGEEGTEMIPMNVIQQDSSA
T3 sequence (looked up) 2: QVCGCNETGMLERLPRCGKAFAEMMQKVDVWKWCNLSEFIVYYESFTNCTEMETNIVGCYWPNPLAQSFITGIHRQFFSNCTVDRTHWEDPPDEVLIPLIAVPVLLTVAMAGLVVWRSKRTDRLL

Binder | Ratio rCT/rAmylin binding (rat calcitonin receptor [1]) | Ratio hCT/hAmylin binding [2] | IC50 (rat calcitonin receptor [3]) | IC50 [4]
KCNTATCATQRLAEFLRHSSPNFGAIPSSTNVGSNTY (C20 diacid-gGlu-2xOEG acylated on the alpha amino group of the N-terminal residue (Lys 1); disulfide Cys2-Cys7; C-terminal amide, Derivative of human amylin; also called compound 19) | 93.6 | 36.7 | 95.6 nM | 1.02 nM
KCNTATCATQRLANFLRHSSPNFGAIPSSTNVGRNTY (C20 diacid-gGlu acylated on the alpha amino group of the N-terminal residue (Lys 1); disulfide Cys2-Cys7; C-terminal amide, Derivative of human amylin; also called compound 39) [N^α1-[(4S)-4-carboxy-4-(19-carboxynonadecanoylamino)butanoyl]-[Arg17,Pro21,Pro27,Arg34]-h-amylin] | 54.5 | 29 | 96.4 nM | 1.77 nM
KCNTATCATQRLANFLRHSSPNFGAIPSSTNVGSKTY (C20 diacid-gGlu acylated on the alpha amino group of the N-terminal residue (Lys 1); disulfide Cys2-Cys7; C-terminal amide, Derivative of human amylin; also called compound 34) [N^α1-[(4S)-4-carboxy-4-(19-carboxynonadecanoylamino)butanoyl]-[Arg17,Pro21,Pro27,Lys35]-h-amylin] | 52 | 64.4 | 89.2 nM | 1.72 nM
KCNTATCATQRLANFLRHSSPNFGAIPSSTNVGHNTY (C20 diacid-gGlu acylated on the alpha amino group of the N-terminal residue (Lys 1); disulfide Cys2-Cys7; C-terminal amide, Derivative of human amylin; also called compound 40) [N^α1-[(4S)-4-carboxy-4-(19-carboxynonadecanoylamino)butanoyl]-[Arg17,Pro21,Pro27,His34]-h-amylin] | 46.2 | 31.1 | 69.2 nM | 1.5 nM
{C20 diacid-γGlu}-KCNTATCATQRLANFLRHSSPNFGAIPSSTNVGPETY-NH2 (disulfide 2-7; SMILES CC[C@H](C)[C@H](NC(=O)[C@H](C)NC(=O)CNC(=O)[C@H](Cc1ccccc1)NC(=O)[C@H](CC(N)=O)NC(=O)[C@@H]1CCCN1C(=O)[C@H](CO)NC(=O)[C@H](CO)NC(=O)[C@H](Cc1c[nH]cn1)NC(=O)[C@H](CCCNC(=N)N)NC(=O)[C@H](CC(C)C)NC(=O)[C@H](Cc1ccccc1)NC(=O)[C@H](CC(N)=O)NC(=O)[C@H](C)NC(=O)[C@H](CC(C)C)NC(=O)[C@H](CCCNC(=N)N)NC(=O)[C@H](CCC(N)=O)NC(=O)[C@@H](NC(=O)[C@H](C)NC(=O)[C@@H]1CSSC[C@H](NC(=O)[C@H](CCCCN)NC(=O)CC[C@H](NC(=O)CCCCCCCCCCCCCCCCCCC(=O)O)C(=O)O)C(=O)N[C@@H](CC(N)=O)C(=O)N[C@@H]([C@@H](C)O)C(=O)N[C@@H](C)C(=O)N[C@@H]([C@@H](C)O)C(=O)N1)[C@@H](C)O)C(=O)N1CCC[C@H]1C(=O)N[C@@H](CO)C(=O)N[C@@H](CO)C(=O)N[C@H](C(=O)N[C@@H](CC(N)=O)C(=O)N[C@H](C(=O)NCC(=O)N1CCC[C@H]1C(=O)N[C@@H](CCC(=O)O)C(=O)N[C@H](C(=O)N[C@@H](Cc1ccc(O)cc1)C(N)=O)[C@@H](C)O)C(C)C)[C@@H](C)O, Derivative of human amylin; also called compound 29) | 67 | 13.9 | 21.6 nM | 0.322 nM
{C20 diacid-γGlu-AEEA-AEEA}-KCNTATCATQRLAEFLRHSSPNFGAIPSSTNVGSNTP-NH2 (disulfide 2-7; SMILES CC[C@H](C)[C@H](NC(=O)[C@H](C)NC(=O)CNC(=O)[C@H](Cc1ccccc1)NC(=O)[C@H](CC(N)=O)NC(=O)[C@@H]1CCCN1C(=O)[C@H](CO)NC(=O)[C@H](CO)NC(=O)[C@H](Cc1c[nH]cn1)NC(=O)[C@H](CCCNC(=N)N)NC(=O)[C@H](CC(C)C)NC(=O)[C@H](Cc1ccccc1)NC(=O)[C@H](CCC(=O)O)NC(=O)[C@H](C)NC(=O)[C@H](CC(C)C)NC(=O)[C@H](CCCNC(=N)N)NC(=O)[C@H](CCC(N)=O)NC(=O)[C@@H](NC(=O)[C@H](C)NC(=O)[C@@H]1CSSC[C@H](NC(=O)[C@H](CCCCN)NC(=O)COCCOCCNC(=O)COCCOCCNC(=O)CC[C@H](NC(=O)CCCCCCCCCCCCCCCCCCC(=O)O)C(=O)O)C(=O)N[C@@H](CC(N)=O)C(=O)N[C@@H]([C@@H](C)O)C(=O)N[C@@H](C)C(=O)N[C@@H]([C@@H](C)O)C(=O)N1)[C@@H](C)O)C(=O)N1CCC[C@H]1C(=O)N[C@@H](CO)C(=O)N[C@@H](CO)C(=O)N[C@H](C(=O)N[C@@H](CC(N)=O)C(=O)N[C@H](C(=O)NCC(=O)N[C@@H](CO)C(=O)N[C@@H](CC(N)=O)C(=O)N[C@H](C(=O)N1CCC[C@H]1C(N)=O)[C@@H](C)O)C(C)C)[C@@H](C)O, Derivative of human amylin; also called compound 20) | 6.4 | 3.6 | 4.43 nM | 0.696 nM
{C20 diacid-γGlu}-KCNTATCATQRLANFLRHSSPNFGAIPSSTPVGSETY-NH2 (disulfide 2-7; SMILES CC[C@H](C)[C@H](NC(=O)[C@H](C)NC(=O)CNC(=O)[C@H](Cc1ccccc1)NC(=O)[C@H](CC(N)=O)NC(=O)[C@@H]1CCCN1C(=O)[C@H](CO)NC(=O)[C@H](CO)NC(=O)[C@H](Cc1c[nH]cn1)NC(=O)[C@H](CCCNC(=N)N)NC(=O)[C@H](CC(C)C)NC(=O)[C@H](Cc1ccccc1)NC(=O)[C@H](CC(N)=O)NC(=O)[C@H](C)NC(=O)[C@H](CC(C)C)NC(=O)[C@H](CCCNC(=N)N)NC(=O)[C@H](CCC(N)=O)NC(=O)[C@@H](NC(=O)[C@H](C)NC(=O)[C@@H]1CSSC[C@H](NC(=O)[C@H](CCCCN)NC(=O)CC[C@H](NC(=O)CCCCCCCCCCCCCCCCCCC(=O)O)C(=O)O)C(=O)N[C@@H](CC(N)=O)C(=O)N[C@@H]([C@@H](C)O)C(=O)N[C@@H](C)C(=O)N[C@@H]([C@@H](C)O)C(=O)N1)[C@@H](C)O)C(=O)N1CCC[C@H]1C(=O)N[C@@H](CO)C(=O)N[C@@H](CO)C(=O)N[C@H](C(=O)N1CCC[C@H]1C(=O)N[C@H](C(=O)NCC(=O)N[C@@H](CO)C(=O)N[C@@H](CCC(=O)O)C(=O)N[C@H](C(=O)N[C@@H](Cc1ccc(O)cc1)C(N)=O)[C@@H](C)O)C(C)C)[C@@H](C)O, Derivative of human amylin; also called compound 28) | 44.9 | 20.5 | 54.9 nM | 1.22 nM
KCNTATCATQRLANFLRHSSPNFGAIPSSTNVGSNTY (C20 diacid-gGlu-2xOEG acylated on the alpha amino group of the N-terminal residue (Lys 1); disulfide Cys2-Cys7; C-terminal amide, Derivative of human amylin; also called compound 24) | 116 | 90 | 350 nM | 3.01 nM
KCNTATCATQRLANFLRHSSPNFGAIPSSTNVGSETY (C20 diacid-gGlu acylated on the alpha amino group of the N-terminal residue (Lys 1); disulfide Cys2-Cys7; C-terminal amide, Derivative of human amylin; also called compound 23) [N^α1-[(4S)-4-carboxy-4-(19-carboxynonadecanoylamino)butanoyl]-[Arg17,Pro21,Pro27,Glu35]-h-amylin] | 71.3 | 25 | 79.9 nM | 1.12 nM
